Starred links: 1 amine or outer side, 2 acyl side, 3 side chain; linkers in the order of their positions; H or OH if unused. Positions of bridges follow the written chain, without caps; N, C: chain ends. Non-standard residues stand in square brackets, D forms with d. *: point of attachment. FITC = O=C1OC2(c3ccc(O)cc3Oc3cc(O)ccc32)c2ccc(NC(=S)*)cc21; S7 = C[C@@](CCCCCC=[*:3])(N[*:1])C(=O)[*:2]; R8 = C=CCCCCCC[C@@](C)(N)C(=O)O; Cba = N[C@@H](CC1CCC1)C(=O)O; S5 = C=CCCC[C@](C)(N)C(=O)O; Ahx = NCCCCCC(=O)O
T1: MDMX (1–134) (UniProt O15151 1-134)
T1 construct: MDMX, residues 1-134; the methods may stand in the ESI; also called Mouse double minute X homolog
T1 sequence (looked up): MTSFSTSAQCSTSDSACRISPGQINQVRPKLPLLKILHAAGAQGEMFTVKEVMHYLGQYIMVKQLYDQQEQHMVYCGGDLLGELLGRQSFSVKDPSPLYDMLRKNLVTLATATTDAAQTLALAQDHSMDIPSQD


Target: T1, MDMX (1–134)
Test: fluorescence polarisation; direct binding; 10 nM FITC-labelled peptide incubated with varying concentrations of protein (10 μM to 9 pM), FP read after 3 h; n = 3
Conditions: both partners purified

Kd | Binder
1120 ± 252 nM | {FITC-Ahx}-LTA[S7]EYWAQ[Cba][S7]SAA-NH2 (staple 4-11) [5FITC]
203 ± 54 nM | {FITC-Ahx}-LTF[S7]EYWAQ[Cba][S7]SAA-NH2 (bridge 4-11; not fully specified (bridges)) [4FITC]
8.42 ± 0.09 nM | {FITC-Ahx}-LTF[R8]EYWAQ[Cba][S5]SAA-NH2 (staple 4-11; also: cis alkene isomer) [cis-2FITC (ATSP-7041)]
7.86 ± 0.15 nM | {FITC-Ahx}-LTF[R8]EYWAQ[Cba][S5]SAA-NH2 (staple 4-11; also: trans alkene isomer) [trans-3FITC (ATSP-7041)]

Target: T2, MDM2 (1–138) (UniProt Q00987 1-138)
T2 construct: MDM2, residues 1-138; the methods may stand in the ESI; also called Mouse double minute 2 homolog
Test: as above
Conditions: both partners purified

T2 sequence (Q00987 1-138): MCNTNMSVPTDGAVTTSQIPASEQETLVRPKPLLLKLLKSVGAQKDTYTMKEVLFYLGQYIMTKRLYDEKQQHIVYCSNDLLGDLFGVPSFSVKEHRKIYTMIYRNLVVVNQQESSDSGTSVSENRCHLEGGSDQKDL

Kd | Binder
3680 ± 151 nM | {FITC-Ahx}-LTA[S7]EYWAQ[Cba][S7]SAA-NH2 (staple 4-11) [5FITC]
1.39 ± 0.08 nM | {FITC-Ahx}-LTF[S7]EYWAQ[Cba][S7]SAA-NH2 (bridge 4-11; not fully specified (bridges)) [4FITC]

From paper PMC11741006 (RSC Chemical Biology, 2025)
